Assay results as given in US20240101645A1 (HENRY M JACKSON FOUNDATION FOR THE ADVANCEMENT OF MILITARY …, published 2024).

What was measured:
[1] = target: T1, HCoV-NL63 spike antigens (bead panel) (HCoV-NL63, UniProt Q6Q1S2 19-1296); assay: multiplex bead assay
T1 sequence: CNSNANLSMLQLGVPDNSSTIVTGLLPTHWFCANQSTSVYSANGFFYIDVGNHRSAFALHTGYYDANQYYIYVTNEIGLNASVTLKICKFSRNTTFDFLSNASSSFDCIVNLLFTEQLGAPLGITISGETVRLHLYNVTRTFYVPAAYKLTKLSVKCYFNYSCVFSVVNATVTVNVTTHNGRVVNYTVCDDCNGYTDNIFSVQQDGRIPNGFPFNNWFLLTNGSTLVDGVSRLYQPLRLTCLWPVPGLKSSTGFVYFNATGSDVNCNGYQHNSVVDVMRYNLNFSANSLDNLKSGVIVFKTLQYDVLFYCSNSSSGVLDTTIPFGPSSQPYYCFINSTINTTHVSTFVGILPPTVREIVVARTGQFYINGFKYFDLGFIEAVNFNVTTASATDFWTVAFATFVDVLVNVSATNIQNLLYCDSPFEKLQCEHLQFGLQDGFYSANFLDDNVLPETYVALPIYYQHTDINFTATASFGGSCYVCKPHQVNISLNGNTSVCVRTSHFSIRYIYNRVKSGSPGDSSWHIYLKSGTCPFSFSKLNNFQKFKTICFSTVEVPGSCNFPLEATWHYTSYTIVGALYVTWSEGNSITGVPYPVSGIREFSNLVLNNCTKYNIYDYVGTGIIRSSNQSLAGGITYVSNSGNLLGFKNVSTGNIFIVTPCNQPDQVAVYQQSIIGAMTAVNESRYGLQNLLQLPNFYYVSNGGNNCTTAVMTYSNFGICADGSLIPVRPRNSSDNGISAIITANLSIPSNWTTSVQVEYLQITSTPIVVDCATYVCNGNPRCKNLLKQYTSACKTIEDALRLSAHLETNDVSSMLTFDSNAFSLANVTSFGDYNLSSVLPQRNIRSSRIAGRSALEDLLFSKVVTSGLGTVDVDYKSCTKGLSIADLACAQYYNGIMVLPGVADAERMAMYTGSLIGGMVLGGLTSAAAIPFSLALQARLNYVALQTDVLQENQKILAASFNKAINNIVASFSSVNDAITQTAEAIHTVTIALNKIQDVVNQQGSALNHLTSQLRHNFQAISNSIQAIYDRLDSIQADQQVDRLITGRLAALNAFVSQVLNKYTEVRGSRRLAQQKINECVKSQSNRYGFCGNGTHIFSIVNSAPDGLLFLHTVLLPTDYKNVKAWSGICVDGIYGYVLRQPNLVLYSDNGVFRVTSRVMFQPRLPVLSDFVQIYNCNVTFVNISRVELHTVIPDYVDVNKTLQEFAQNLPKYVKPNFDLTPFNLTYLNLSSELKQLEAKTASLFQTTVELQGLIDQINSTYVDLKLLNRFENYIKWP

[2] = target: T2, HCoV-OC43 spike antigens (bead panel) (HCoV-OC43, UniProt P36334 14-1297); assay: multiplex bead assay
T2 sequence: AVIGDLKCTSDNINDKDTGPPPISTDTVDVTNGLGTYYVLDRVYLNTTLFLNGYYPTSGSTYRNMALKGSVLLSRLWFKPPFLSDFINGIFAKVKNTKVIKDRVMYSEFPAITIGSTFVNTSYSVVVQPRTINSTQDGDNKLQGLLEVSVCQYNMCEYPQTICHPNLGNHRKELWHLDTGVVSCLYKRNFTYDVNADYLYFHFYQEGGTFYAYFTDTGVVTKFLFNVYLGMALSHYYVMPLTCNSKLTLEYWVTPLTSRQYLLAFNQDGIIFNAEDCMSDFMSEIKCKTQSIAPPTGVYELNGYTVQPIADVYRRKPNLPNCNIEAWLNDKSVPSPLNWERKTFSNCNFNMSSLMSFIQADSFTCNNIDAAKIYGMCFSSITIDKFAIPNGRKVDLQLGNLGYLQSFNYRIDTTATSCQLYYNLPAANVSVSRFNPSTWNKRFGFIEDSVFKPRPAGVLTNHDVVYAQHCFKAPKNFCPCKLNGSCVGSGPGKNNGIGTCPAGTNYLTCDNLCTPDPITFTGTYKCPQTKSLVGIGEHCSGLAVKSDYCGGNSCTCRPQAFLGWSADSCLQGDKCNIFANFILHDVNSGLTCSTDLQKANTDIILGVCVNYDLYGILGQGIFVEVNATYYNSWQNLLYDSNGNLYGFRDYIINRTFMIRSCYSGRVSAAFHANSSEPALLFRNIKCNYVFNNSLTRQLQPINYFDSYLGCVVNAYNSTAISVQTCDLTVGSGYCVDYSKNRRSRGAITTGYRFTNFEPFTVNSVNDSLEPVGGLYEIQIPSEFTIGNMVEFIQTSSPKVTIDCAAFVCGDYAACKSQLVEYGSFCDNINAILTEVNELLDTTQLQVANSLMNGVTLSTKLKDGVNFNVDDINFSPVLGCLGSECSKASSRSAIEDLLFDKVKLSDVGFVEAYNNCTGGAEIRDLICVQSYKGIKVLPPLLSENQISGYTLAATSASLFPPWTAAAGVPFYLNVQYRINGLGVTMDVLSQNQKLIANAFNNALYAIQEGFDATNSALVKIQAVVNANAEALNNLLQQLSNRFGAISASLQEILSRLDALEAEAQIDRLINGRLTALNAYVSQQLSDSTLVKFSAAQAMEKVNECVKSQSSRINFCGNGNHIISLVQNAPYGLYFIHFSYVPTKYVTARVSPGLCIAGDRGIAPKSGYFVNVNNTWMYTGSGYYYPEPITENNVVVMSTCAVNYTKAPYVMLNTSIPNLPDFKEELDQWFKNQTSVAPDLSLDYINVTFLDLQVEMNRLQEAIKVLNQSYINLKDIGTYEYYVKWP

B1: COV_2125 (antibody, V domains shown)
VH: EVQLVESGGGVVQPGRSLRLSCAASGFTFSSYGMHWVRQAPGKGLEWVAVISYDGSNKYYADSVKGRFTISRDNSKNTLSLQMNSLRPEDTAVYYCAKDSPYYYDSSGYYPGYFQDWGQGSLVTVSS
VL: DIQMTQSPSSLSASIGDRVTITCRASQTISDYLNWYQQKPGKAPNLLIYAASTLQSGVPSRFSGSGSGTDFTLTISSLQPEDFATYYCQQSYITPRTFGQGTKVEIK
notes: human IgG1
binding result [1]: no binding
binding result [2]: no binding
